Measured values from PMC5686140, “Structural disorder and induced folding within two cereal, ABA stress and ripening (ASR) proteins” (Scientific Reports, 2017).

Target: the molecule itself
Experiment: native MS; native ESI-MS, Synapt G2-Si; proteins buffer-exchanged into 250 mM ammonium acetate, pH 8.0, infused at 15 μM; source temperature 30 °C

B1: alcohol dehydrogenase (enzyme, UniProt P00330 1-348, looked up)
chain: MSIPETQKGVIFYESHGKLEYKDIPVPKPKANELLINVKYSGVCHTDLHAWHGDWPLPVKLPLVGGHEGAGVVVGMGENVKGWKIGDYAGIKWLNGSCMACEYCELGNESNCPHADLSGYTHDGSFQQYATADAVQAAHIPQGTDLAQVAPILCAGITVYKALKSANLMAGHWVAISGAAGGLGSLAVQYAKAMGYRVLGIDGGEGKEELFRSIGGEVFIDFTKEKDIVGAVLKATDGGAHGVINVSVSEAAIEASTRYVRANGTTVLVGMPAGAKCCSDVFNQVVKSISIVGSYVGNRADTREALDFFARGLVKSPIKVVGLSTLPEIYEKMEKGQIVGRYVVDTSK
notes: alcohol dehydrogenase (ADH, a tetrameric protein), control of the native ESI-MS; Species surmised: the tetrameric ADH commonly used as a native MS standard is that of S. cerevisiae; also called ADH
stoichiometry N: 4
